The results in this text go back to patent US7985736B2, “High throughput screen utilizing newly discovered intramolecular neuronal calcium channel interactions to discover new analgesics” (The John Hopkins University, priority 2004, dated 2011).

The target of one test is T1, I-IIC (Oryctolagus cuniculus, UniProt P15381).
T1 construct: I-IIC residues, 436-554; expressed in transfected cells; host or cells: HEK293
The experiment in a line: Live-cell FRET two-hybrid assay versus I-IIC in HEK293 cells. The note with it: compared with NTB/I-IIB pair. In kind it is binding, rabbit. An excerpt:
To confirm preferential interaction of NTB with I-IIB a live-cell FRET two-hybrid assay was used (Erickson et al., 2003), in which NTB, NTC, I-IIB, and I-IIC were fused to either CFP or YFP, and the resulting fusion constructs expressed pair-wise in mammalian HEK293 cells. Given a Forster distance of ˜50 Å for the CFP/YFP pair (Patterson et al., 2000), the presence of FRET in individual cells would give a strong indication of interpeptide binding in the mammalian intracellular milieu. This indication is generally characterized by a low false-positive rate (Erickson et al., 2003), so that FRET assays provide a useful complement to yeast two-hybrid assays (Allen et al., 1995). […] SCFP (the signal derived from an image obtained with the CFP filter cube) is selective for CFP fluorescence and thereby gives an optical measure of NTB-CFP expression. Analogously, the SYFP signal, derived from preferential excitation and detection of YFP, estimates I-IIB-YFP levels. Finally, the SFRET signal reflects I-IIB-YFP fluorescence stimulated by FRET transfer from NTB-CFP, as well as secondary cross-talk signals. […]
Experiments were performed mostly as previously described (Erickson et al., 2001; Erickson et al., 2003). […] For donor-dequenching analysis, EEFF is calculated as EEFF=^1−CFPpre/CFPpost, where CFPpre and CFPpost are the CFP emissions before/after 3 min YFP photobleaching. […]

In a further test the target is T2, I-II loop of α1C (I-IIC) (Oryctolagus cuniculus, UniProt P15381).
T2 construct: I-IIC (436-554)/pGBKT7; expressed in transfected cells; host or cells: AH109 yeast
The experiment in a line: Yeast two-hybrid assay, NT peptides versus I-IIC. In kind it is binding, rabbit. Particulars: NT segment in pGBKT7, I-IIC in pGADT7. From the text:
(§1) For yeast two-hybrid assays, a PCR fragment encoding one partner was fused, in-frame, with the GAL4 DNA binding domain (BD) in pGBKT7 (Clontech, Palo Alto, Calif.). The other element was fused, in-frame, with the GAL4 activation domain (AD) in pGADT7. For specific residues, see Supplemental Data (section 2). For electrophysiology, NT peptides lacking fluorophore tag were PCR amplified and cloned in pcDNA3. NTB peptide residues, 1-95; NTC residues, […]. Throughout, all segments subject to PCR or QuikChange were verified in their entirety by sequencing.
The Matchmaker GAL4 Two-Hybrid System 3 was used (Clontech, Palo Alto, Calif.). AH109 yeast were transformed with pGBKT7/pGADT7-based constructs (Yeastmaker Yeast Transformation System 2 kit, Clontech). After 5-8 days, growth on -leucine/-trytophan plates confirmed transformation of both plasmids. […]
As a ‘medium’ stringency assay, expression of the lacZ gene was tested for encoding β-galactosidase, performing a filter lift with application of blue chromogenic substrate (Clontech-Laboratories, 1999). […] The percentage of colonies that turned blue in the filter lift assay, along with the percentage of colonies that survived on high stringency plates, was recorded for each pairing. […]

The target of the next test is T3, Gβ1 (Bos taurus, UniProt P62871).
T3 construct: expressed in transfected cells; host or cells: AH109 yeast
The experiment in a line: Yeast two-hybrid assay, channel fragments versus Gβ1. In kind it is binding. The note with it: Gβ1 in pGADT7, channel fragment in pGBKT7.
From the text: as §1
(§2) The Matchmaker GAL4 Two-Hybrid System 3 was used (Clontech, Palo Alto, Calif.). AH109 yeast were transformed with pGBKT7/pGADT7-based constructs (Yeastmaker Yeast Transformation System 2 kit, Clontech). After 5-8 days, growth on -leucine/-trytophan plates confirmed transformation of both plasmids. If partners interact, GAL4 BD/AD would complex, activating reporter genes (HIS3, ADE2, lacZ, and MEL1), for which assays are detailed in the Supplemental Data (section 2.1).
As a ‘medium’ stringency assay, expression of the lacZ gene was tested for encoding β-galactosidase, performing a filter lift with application of blue chromogenic substrate (Clontech-Laboratories, 1999). After the filter lift, original plates were re-grown for 2-3 days at 30° C. Filter paper was then used to replicate colonies onto a high stringency plate (-adenine/-histidine/-leucine/-trytophan). These plates were then incubated at 30° C. for 5-8 days. Survival on high stringency plates indicates production of both adenine and histidine, from transcription of the ADE2 and HIS3 genes, respectively. The percentage of colonies that turned blue in the filter lift assay, along with the percentage of colonies that survived on high stringency plates, was recorded for each pairing. Experiments were repeated at least three times. False positives were controlled for by testing each segment in pGBKT7 against empty pGADT7, and each segment in pGADT7 against lamin C in pGBKT7 (lamin C interacts with few proteins). […]

In the next test the target is T4, I-II loop of α1B (I-IIB) (Homo sapiens, UniProt Q00975).
T4 construct: I-IIB(357-482)-pGADT7 & lam-pGBKT7; expressed in transfected cells; host or cells: AH109 yeast
The experiment in a line: Yeast two-hybrid assay, NT peptides versus I-IIB. Particulars: NT segment in pGBKT7, I-IIB in pGADT7. In kind it is binding.
From the text: as §1, §2
As a ‘medium’ stringency assay, expression of the lacZ gene was tested for encoding β-galactosidase, performing a filter lift with application of blue chromogenic substrate (Clontech-Laboratories, 1999). After the filter lift, original plates were re-grown for 2-3 days at 30° C. Filter paper was then used to replicate colonies onto a high stringency plate (-adenine/-histidine/-leucine/-trytophan). These plates were then incubated at 30° C. for 5-8 days. Survival on high stringency plates indicates production of both adenine and histidine, from transcription of the ADE2 and HIS3 genes, respectively. The percentage of colonies that turned blue in the filter lift assay, along with the percentage of colonies that survived on high stringency plates, was recorded for each pairing. Experiments were repeated at least three times. False positives were controlled for by testing each segment in pGBKT7 against empty pGADT7, and each segment in pGADT7 against lamin C in pGBKT7 (lamin C interacts with few proteins). Average sum of these backgrounds was subtracted from B to produce the net interaction parameter ΔB (FIG. 2).

T4 sequence (Q00975 357-482): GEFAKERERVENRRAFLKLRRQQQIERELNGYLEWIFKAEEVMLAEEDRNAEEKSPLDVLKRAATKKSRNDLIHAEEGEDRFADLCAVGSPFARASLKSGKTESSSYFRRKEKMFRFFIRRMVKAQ
T3 sequence (P62871 whole entry): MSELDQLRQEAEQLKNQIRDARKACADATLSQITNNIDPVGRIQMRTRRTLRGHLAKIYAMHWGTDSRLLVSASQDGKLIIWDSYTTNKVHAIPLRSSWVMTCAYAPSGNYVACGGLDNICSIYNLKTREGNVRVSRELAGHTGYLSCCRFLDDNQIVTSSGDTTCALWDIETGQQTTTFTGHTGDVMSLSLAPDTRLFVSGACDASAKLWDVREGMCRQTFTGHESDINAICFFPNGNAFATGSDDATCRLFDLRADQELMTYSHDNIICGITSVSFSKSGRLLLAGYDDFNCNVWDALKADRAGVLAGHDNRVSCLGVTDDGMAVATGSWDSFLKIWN
T1 sequence (P15381 436-554): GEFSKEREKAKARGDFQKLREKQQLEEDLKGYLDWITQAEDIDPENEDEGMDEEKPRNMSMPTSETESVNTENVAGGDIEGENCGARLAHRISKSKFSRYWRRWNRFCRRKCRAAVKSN
T2 sequence (P15381 436-554): as above

“NTC: NH3 terminus of L-type channel α1C subunit, free peptide [reference compound]”: the “Kd,EFF for I-IIC (FRET), in words” value with I-IIC was “larger by an order of magnitude or more”. For the same molecule, the “Interaction with I-IIC (yeast two-hybrid)” value with I-II loop of α1C (I-IIC) is “failed to reveal an association”. The “Interaction with Gβ1 (yeast two-hybrid)” value in the test with Gβ1 was “interact”. Further, in the test with I-II loop of α1B (I-IIB), the “Interaction with I-IIB (yeast two-hybrid, ΔB)” value is “failed to reveal an association”.

B1: NTB: NH3 terminus of N-type channel α1B subunit, residues 1-95, expressed as free peptide (SEQ ID NO.: 1) (protein, listed as Homo sapiens)
chain: MVRFGDELGGRYGGPGGGERARGGGAGGAGGPGPGGLQPGQRVLYKQSIAQRARTMALYNPIPVKQNCFTVNRSLFVFSEDNVVRKYAKRITEWP
As for B1, in the test with I-IIC, the “Kd,EFF for I-IIC (FRET), in words” value was “larger by an order of magnitude or more”. In addition, the “Interaction with I-IIC (yeast two-hybrid)” value with I-II loop of α1C (I-IIC) is “failed to reveal an association”. Besides, the “Interaction with Gβ1 (yeast two-hybrid)” value with Gβ1 is given as “interact”. Moreover, the “Interaction with I-IIB (yeast two-hybrid, ΔB)” value with I-II loop of α1B (I-IIB) was “positive”.
